Data as given in US6586197B1, “Methods and materials for identifying novel pesticide agents” (priority 1999, dated 2003).

Columns and labels:
[1] = molecular target: T1, purified 115 kDa APN from Manduca sexta (Manduca sexta, UniProt Q11001); settings: Masson et al., 1995; cited from earlier work
T1 sequence (Q11001 36-968 limits assumed): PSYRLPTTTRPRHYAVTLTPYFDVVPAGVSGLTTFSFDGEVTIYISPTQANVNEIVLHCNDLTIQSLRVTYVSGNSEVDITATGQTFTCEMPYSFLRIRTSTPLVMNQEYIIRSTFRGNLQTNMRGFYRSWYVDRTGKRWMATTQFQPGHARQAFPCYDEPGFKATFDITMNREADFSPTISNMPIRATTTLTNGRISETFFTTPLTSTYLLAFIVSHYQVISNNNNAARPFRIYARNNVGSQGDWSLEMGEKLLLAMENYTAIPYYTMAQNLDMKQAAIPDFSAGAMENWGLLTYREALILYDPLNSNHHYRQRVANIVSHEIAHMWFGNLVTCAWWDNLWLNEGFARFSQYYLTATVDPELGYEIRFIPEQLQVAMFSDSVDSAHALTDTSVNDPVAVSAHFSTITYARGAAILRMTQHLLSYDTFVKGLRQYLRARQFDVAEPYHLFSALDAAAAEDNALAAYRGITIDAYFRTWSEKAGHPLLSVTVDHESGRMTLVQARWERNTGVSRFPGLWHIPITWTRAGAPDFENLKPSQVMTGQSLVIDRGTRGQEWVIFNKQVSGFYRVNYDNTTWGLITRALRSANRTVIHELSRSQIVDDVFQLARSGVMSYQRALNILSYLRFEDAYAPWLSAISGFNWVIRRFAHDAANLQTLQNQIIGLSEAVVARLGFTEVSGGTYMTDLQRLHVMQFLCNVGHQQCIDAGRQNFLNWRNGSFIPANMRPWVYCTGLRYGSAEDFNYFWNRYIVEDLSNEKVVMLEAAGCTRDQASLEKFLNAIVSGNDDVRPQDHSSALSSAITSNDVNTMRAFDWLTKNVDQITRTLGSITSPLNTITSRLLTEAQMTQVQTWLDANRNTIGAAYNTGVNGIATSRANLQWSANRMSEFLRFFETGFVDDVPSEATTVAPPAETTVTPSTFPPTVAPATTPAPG

[2] = molecular target: T2, M. sexta 120 kDa APN (Manduca sexta, UniProt Q11001); settings: previous studies (Knight 1994; Sangadala 1994; Masson 1995; Lu and Adang 1996); cited from earlier work
T2 sequence (Q11001 36-968): T1 sequence (Q11001 36-968 limits assumed)

[3] = tested on: Sf21 cells transfected with pHSP-HR5; assay: Toxicity assay (Trypan blue cell mortality), control-vector Sf21 cells; settings: 2 h
Experimental: The pHSP120 plasmid DNA was isolated and purified using a Plasmid Maxi Kit (Qiagen, Valencia, Calif.). Sf21 (IPLB-Sf21) cells (Vaughn et al., 1977) were plated at 1.8×10^6 cells per plate (60 mm diameter) prior to transfection with pHSP120 DNA. Plasmid DNA (10 μg) was mixed with 5 μl of Lipofectin reagent (Gibco BRL, Gaithersburg, Md.) and combined with 1 ml of TC-100 medium (Gibco BRL, Gaithersburg, Md.). The mixture was incubated at room temperature for 15 min. Following 3 washes with TC-100 medium, the DNA/Lipofectin mixture was added to the cells, and then the cells were incubated at room temperature for 4 h on a rocker. After removal of DNA/Lipofectin mixture, TC-100 with 10% fetal bovine serum (4 ml) was added to the plates and the cells were incubated at 27° C. overnight. […] After incubation at 27° C. for 24 h, the cells were collected and analyzed using immunofluorescence localization and Western blotting.
Sf21 cells (1.8×10^6) were grown and heat-shocked as described above. […] Cell mortality was determined by trypan blue staining as described by Thomas and Ellar (1983).
(§1) Thetoxicity of three Cry1toxins to Sf21 cells expressing M sexta 120 APN was determined. A single concentration of Cry1toxins (40 μg/ml) was used and the cell mortality was measured by Trypan blue staining (Thomas and Ellar 1983).

[4] = tested on: expressed 120 kDa APN from Sf21 cells; assay: Toxin affinity chromatography and anti-APN immunoblot, Sf21 cells; assay type: binding, Manduca sexta; settings: CHAPS-solubilized Sf21 cells, anti-APN immunoblot (FIG. 13)
Experimental: Affinity purification method of M. sexta 120 kDa APN from Sf21 cells or M. sexta midgut BBMV was described in Luo et al (1996). Briefly, Cry1Ac, Cry1Ba and Cry3a toxins (200 μg) were coupled to 400 μl of cyanogen bromide-activated Sepharose 4B in 20 mM Na2CO3, pH 9.6. M sexta BBMV (1 ml, 3.4 mg/ml proteins) or Sf21 cells (10^7 cells) were solubilized with 2% 3-[(3-cholamidopropyl) dimethylammoniol]-1-propane-sulphonate (CHAPS) in buffer A (50 mM Na2CO3, pH 9.6, 200 mM NaCl, 5 mM EGTA, 0.1% CHAPS). Insoluble material was removed by centrifugation at 27,000×g for 30 min at 4° C. CHAPS-solubilized BBMV (1 ml) or Sf21 cells (2 ml) were then added to the toxin-coupled Sepharose beads equilibrated with Buffer A. The mixture was incubated at 4° C. overnight. After washing with 100 ml of Buffer A, the binding protein-toxin complex was dissociated from the beads by heating in SDS-PAGE sample buffer at 100° C. for 5 min. The samples were separated by 8% SDS-PAGE, and then electrophoretically transferred to nitrocellulose membrane (Millipore Corp., Bedford, Mass.) in transfer buffer (Towbin et al., 1979) at 4° C. overnight. The membrane was blocked with 5% non-fat dry milk in PBST at room temperature for 1 h, and then probed with anti-APN antibody (0.5 μg/ml) in PBST containing 0.1% non-fat dry milk for 2 h. […]

[5] = tested on: Sf21 cells transfected with pHSP120; assay: Toxicity assay (Trypan blue cell mortality), Sf21 cells expressing M. sexta 120 kDa APN; settings: 2 h
Experimental: The pHSP120 plasmid DNA was isolated and purified using a Plasmid Maxi Kit (Qiagen, Valencia, Calif.). Sf21 (IPLB-Sf21) cells (Vaughn et al., 1977) were plated at 1.8×10^6 cells per plate (60 mm diameter) prior to transfection with pHSP120 DNA. Plasmid DNA (10 μg) was mixed with 5 μl of Lipofectin reagent (Gibco BRL, Gaithersburg, Md.) and combined with 1 ml of TC-100 medium (Gibco BRL, Gaithersburg, Md.). The mixture was incubated at room temperature for 15 min. Following 3 washes with TC-100 medium, the DNA/Lipofectin mixture was added to the cells, and then the cells were incubated at room temperature for 4 h on a rocker. After removal of DNA/Lipofectin mixture, TC-100 with 10% fetal bovine serum (4 ml) was added to the plates and the cells were incubated at 27° C. overnight. Expression of 120 kDa APN in Sf21 cells was induced by heat-shocking cells at 42° C. for 30 min the following day. After incubation at 27° C. for 24 h, the cells were collected and analyzed using immunofluorescence localization and Western blotting.
Sf21 cells (1.8×10^6) were grown and heat-shocked as described above. […] The freshly prepared toxin solution (1 ml) was added to each Sf21 cell plate and incubated at room temperature for 2 h. Cell mortality was determined by trypan blue staining as described by Thomas and Ellar (1983).
as §1

[6] = tested on: expressed 120 kDa APN on Sf21 cells transfected with pHSP120; assay: Immunofluorescence binding of rhodamine-labeled toxins to Sf21 cells (confocal microscopy), pHSP120; set-up: species or system Manduca sexta; settings: toxin 1 μg/ml, fixed Sf21 cells transfected with pHSP120
Experimental: Growth of B. thuringiensis strains, trypsin activation, and fast-performance liquid chromatography (Pharmacia) purification of Cry1Ac, […] and Cry3a toxins were done as previously described (Garczynski et al 1991; Lu and Adang 1996). […] The purified Cry1Ac and Cry1Ba (200 μg) were labeled with 5-(and-6)-carboxytetramethylrhodamine, succinimidyl ester [5(6)-TAMRA SE] (Molecular Probe, Eugene, Oreg.) according to the manufacturer's instructions. Briefly, 5(6)-TAMRA (5 mg) were dissolved in 0.5 ml of Dimethylformamide (DMF) immediately before starting the labeling. The dye solution (100 μl) was slowly added into 500 μl of toxin sample (200 μg toxins) and incubated for 1 h at room temperature. The reaction was stopped by adding 0.1 ml of 1.5 M hydroxylamine, pH 8.5, and then the mixture was incubated. for 1h at room temperature. […]
Sf21 cells were plated onto a microscope cover glass (18×18 mm) in a tissue culture dish (60×15 mm diameter), and then transfected and heat-shocked as described above. […] Immunostained cells were observed using fluorescence microscopy or fluorescence confocal microscopy (Center for Advanced Ultrastructural Research, University of Georgia).
Since the expressed 120 kDa APN located on Sf21 cell surfaces, we examined the binding of Cry1toxins to Sf21 cells using double immunofluorescence staining. […] And then cells were viewed by fluorescence confocal microscopy.

[7] = tested on: enzymatic activity of Sf21 cells transfected with pHSP-HR5; assay: Aminopeptidase N activity assay (L-leucine-p-nitroanilide), homogenate of pHSP-HR5-transfected Sf21 cells; assay type: biochemical, Spodoptera frugiperda; settings: homogenate 50 μg of proteins, pHSP-HR5-transfected Sf21 cells (FIG. 9, column D)
Experimental: (§2) Sf21 cells transfected with pHSP120 or pHSP-HR5 were collected and washed two times with PBS. The cells were suspended in 2 ml PBS and then homogenized with Potter-Helvehjem homogenizer. The cell homogenate was centrifuged at 27,000×g for 15 min at 4° C. The pellet was re-suspended in 2 ml of 10 mM Tris-HCl, 150 mM NaCl, pH 7.4. APN activity was assayed with L-leucine-p-nitroanilide as substrate as described previously (4). Briefly, the APN substrate (50 μl 6.8 mg/ml in methanol) was mixed with 1.4 ml of substrate buffer (10 mM Tris-HCl, 150 mM NaCl pH 7.4), and then the homogenate (50 μg of proteins) was added. The sample solution was incubated at 37° C. for 2 h. The level of APN activity was then determined by spectrophotometric measurement of free p-nitroanilide at […].
(§3) Sf21 cells transfected with pHSP120 or pHSP-HR5 were collected and homogenized. The homogenate (50 μg of proteins) was tested for APN activity. A high level of APN activity was present in the cells transfected pHSP120 compared with that in the cells transfected with pHSP-HR5 (FIG. 9, columns A and C).

[8] = tested on: expressed M sexta APN1a; assay: Aminopeptidase N activity assay (L-leucine-p-nitroanilide), homogenate of pHSP120-transfected Sf21 cells; assay type: biochemical, Manduca sexta; settings: homogenate 50 μg of proteins, pHSP120-transfected Sf21 cells (FIG. 9, column B)
Experimental: as §2, §3

Compound: Cry1Aa: Bacillus thuringiensis Cry1 δ-endotoxin (literature)
- Binding to purified 115 kDa APN [1]: bind
- Specific binding to M. sexta 120 kDa APN [2]: bound specifically

Compound: Cry1Ac: trypsin-activated, purified B. thuringiensis Cry1Ac toxin
- Mortality (%) (±SE), Cells transfected with pHSP-HR5 ([3]; 40 μg/ml toxin in insect PBS, Trypan blue (0.1%) staining, means of three assays (±standard error), control vector): 20.6 (±0.5) %
- Toxicity in words ([3]; 40 μg/ml toxin, Sf21 cells transfected with pHSP-HR5): low toxicity
- Binding of APN to toxin affinity column [4]: did not bind
- Binding to purified 115 kDa APN [1]: bind
- Specific binding to M. sexta 120 kDa APN [2]: bound specifically
- Mortality (%) (±SE), Cells transfected with pHSP 120 ([5]; 40 μg/ml toxin in insect PBS, Trypan blue (0.1%) staining, means of three assays (±standard error)): 20.0 (±0.4) %
- Difference in mortality between pHSP120- and pHSP-HR5-transfected Sf21 cells ([5]; 40 μg/ml toxin): no significant difference
- Toxicity in words ([5]; 40 μg/ml toxin, Sf21 cells transfected with pHSP120): low toxicity
- Binding of rhodamine-labeled toxin (immunofluorescence) [6]: does not bind

Compound: Cry1Ab: Bacillus thuringiensis Cry1 δ-endotoxin (literature)
- Binding to purified 115 kDa APN [1]: bind
- Specific binding to M. sexta 120 kDa APN [2]: bound specifically

Compound: CC(C)C[C@@H](N)[C@H](O)C(=O)N[C@H](C(=O)N[C@H](C(=O)N[C@@H](CC(=O)O)C(=O)O)C(C)C)C(C)C [Amastatin]
- Effect on APN activity [7]: did not show significantly impact
- Effect on APN activity [8]: greatly reduced
